“And” between values parts separate entries of the source, which are not always exact repeats. Identical values can stand only once.
Key:
[1] = molecular target: T1, human FcRn (human, UniProt P55899 24-297; P61769 21-119); assay: SPR, Biacore 8K, CM5 chip, antibody immobilised, human FcRn as analyte, pH 6.0
T1 construct: also called neonatal Fc receptor

[2] = molecular target: T2, biotinylated recombinant human TL1A (human, UniProt O95150 57-251, limits assumed, biotinylated (sites not given)); assay: competition ELISA, blocks biotinylated human TL1A (3.5 nM) binding to coated DR3/Fc
T2 sequence: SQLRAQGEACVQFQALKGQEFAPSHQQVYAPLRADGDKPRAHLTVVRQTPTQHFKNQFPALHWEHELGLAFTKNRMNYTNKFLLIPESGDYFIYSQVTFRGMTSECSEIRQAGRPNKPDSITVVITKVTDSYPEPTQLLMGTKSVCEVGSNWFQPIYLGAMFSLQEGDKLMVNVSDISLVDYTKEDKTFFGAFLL

[3] = molecular target: T3, TL1A (antigen of Examples 1 and 2, species not stated) (UniProt O95150 57-251, limits assumed); assay: cell-based or functional assay
T3 sequence (looked up): T2 sequence

[4] = molecular target: T3, TL1A (antigen of Examples 1 and 2, …); assay: SPR, Biacore 8K, Protein A chip, antibody captured, antigen as analyte
[5] = molecular target: T1, human FcRn; assay: SPR, Biacore 8K, CM5 chip, FcRn, pH 6.0
[6] = molecular target: T2, biotinylated recombinant human TL1A; assay: competition ELISA, blocks biotinylated human TL1A (3.5 nM) binding to coated DcR3/Fc

T1 sequence (P55899 24-297 limits assumed, chain 1 of 2): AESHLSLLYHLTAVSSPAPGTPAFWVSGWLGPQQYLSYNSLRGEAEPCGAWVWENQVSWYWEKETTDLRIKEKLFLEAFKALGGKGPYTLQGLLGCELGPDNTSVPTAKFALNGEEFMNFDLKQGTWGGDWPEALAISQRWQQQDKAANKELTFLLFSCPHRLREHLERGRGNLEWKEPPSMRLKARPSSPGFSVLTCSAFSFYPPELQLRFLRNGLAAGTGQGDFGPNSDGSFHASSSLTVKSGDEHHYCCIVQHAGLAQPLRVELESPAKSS
T1 sequence (P61769 21-119 limits assumed, chain 2 of 2): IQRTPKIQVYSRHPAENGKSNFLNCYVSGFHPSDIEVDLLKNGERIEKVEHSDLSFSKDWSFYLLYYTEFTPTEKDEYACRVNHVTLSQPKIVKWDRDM

B1: AB_TL1A_02_004_HL2 (antibody, human IgG1, kappa)
heavy: QVQLVQSGAEVKKPGASVKVSCKASGYDFTYYGISWVRQAPGQGLEWMGWISPYNGNTHYAQKLQGRVTMTTDTSTRTAYMELRSLRSDDTAVYYCARENYYGSGAYRGGMDVWGQGTTVTVSSASTKGPSVFPLAPSSKSTSGGTAALGCLVKDYFPEPVTVSWNSGALTSGVHTFPAVLQSSGLYSLSSVVTVPSSSLGTQTYICNVNHKPSNTKVDKKVEPKSCDKTHTCPPCPAPEAAGAPSVFLFPPKPKDTLMISRTPEVTCVVVDVSHEDPEVKFNWYVDGVEVHNAKTKPREEQYNSTYRVVSVLTVLHQDWLNGKEYKCKVSNKALPAPIEKTISKAKGQPREPQVYTLPPSREEMTKNQVSLTCLVKGFYPSDIAVEWESNGQPENNYKTTPPVLDSDGSFFLYSKLTVDKSRWQQGNVFSCSVLHEALHSHYTQKSLSLSPG
light: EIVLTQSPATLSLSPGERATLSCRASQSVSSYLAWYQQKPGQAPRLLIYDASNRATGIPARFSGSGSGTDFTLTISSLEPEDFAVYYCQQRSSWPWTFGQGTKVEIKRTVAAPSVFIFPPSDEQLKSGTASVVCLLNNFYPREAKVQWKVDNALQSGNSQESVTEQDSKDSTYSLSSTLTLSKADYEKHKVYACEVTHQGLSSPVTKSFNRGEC
notes: HLE mutations M428L, N434S
For B1, the Kd [1] was 159 nM and 190 nM, the IC50 [2] was 0.58 nM and the “IC50 (nM), inhibition of TL1A-induced apoptosis of TF-1 cells (Caspase-Glo 3/7)” value [3] was 0.87 nM. The “max inhibition of TL1A-induced apoptosis of TF-1 cells” value [3] was 95%, the Kd [4] was under 0.0262 nM and the Kd [5] was 159 nM and 190 nM. The IC50 [6] was 1.3 nM.
